Measured values published in patent US20210198328A1, “MODULATED CAS-INHIBITORS” (Universität Heidelberg, priority 2017, published 2021).

Key:
SpyCas9 = molecular target: T1, SpyCas9 (Streptococcus pyogenes serotype M1, UniProt Q99ZW2); assay: Cas9 luciferase reporter cleavage assay (dual luciferase); assay type: cell-based; conditions: HEK 293T, 48 h post-transfection; for effect on Cas9-caused firefly luciferase knockdown (Cas9 inhibition): with or without N-terminal SV40 NLS
T1 construct: 2A-GFP (C); host or cells: HEK 293T
Procedure: HEK 293T cells were seeded into black, clear-bottom 96-well plates (Corning) at a density of ˜12.500 cells per well Twenty-four hours after seeding, cells were transfected according to the manufacturer's instructions using Lipofectamine® 2000 and Opti-MEM® reduced serum medium (Thermo Fisher).
For the dCas9-VP64 trans-activation assays, 50 ng/well of each, a plasmid encoding dCas9-VP64_GFP (Addgene plasmid #61422, kind gift from Feng Zhang), a tet-inducible firefly luciferase reporter (Addgene plasmid #64127, kind gift from Moritoshi Sato) and a TetO-targeting guide RNA vector (Addgene plasmid #64161, kind gift from Moritoshi Sato) were co-transfected alongside 1 ng/well pRL-TK (TK-driven Renilla expression vector for normalization; Promega) as well as 1-50 ng/well of the AcrIIA4 constructs and, optionally, stuffer DMA (pcDNA3.1(−) (Invitrogen)). For the reporter cleavage assay, a plasmid encoding an H1 promoter-driven guideRNA as well as firefly luciferase and Renilla luciferase was co-transfected alongside Cas9 expression vector pSpCas9(BB)-2A-GFP (PX453; Addgene plasmid #48138, kind gift from Feng Zhang) as weft as the corresponding AcrIIA4 variant (50 ng/well each). […]
(§1) Six h post-transfection, medium was replaced and the cells were illuminated with 460 nm pulsatile blue light (light intensity 2-3 W/m^2 as measured with a LI-COR LI-250A Light Meter, pulsatile illumination regime is indicated in figure legends) or kept in the dark under otherwise identical conditions for 32-42 h (indicated in figure legends). […] Subsequently, the luciferase activity was measured using the Dual-Glo luciferase assay kit (Promega) according to the manufacturer's protocol. In brief, the cells were lysed using the provided lysis buffer and tire activity of firefly and Renilla luciferase was quantified using a GLOMAX 96 Microplate Luminometer (Promega) with automated injectors (delay time 2 s, integration time 10 s). The relative luciferase activity was calculated by dividing the firefly luciferase photon counts by the Renilla luciferase photon counts. […]

dCas9-VP64 = molecular target: T2, dCas9-VP64 (Streptococcus pyogenes serotype M1, UniProt Q99ZW2, D10A/N863A); assay: dCas9-VP64 luciferase reporter trans-activation assay; assay type: cell-based; conditions: HEK 293T
T2 construct: host or cells: HEK 293T
Procedure: HEK 293T cells were seeded into black, clear-bottom 96-well plates (Corning) at a density of ˜12.500 cells per well Twenty-four hours after seeding, cells were transfected according to the manufacturer's instructions using Lipofectamine® 2000 and Opti-MEM® reduced serum medium (Thermo Fisher). […]
as §1

Cas9 = molecular target: T3, Cas9 (Streptococcus pyogenes serotype M1, UniProt Q99ZW2); assay: T7 endonuclease assay, CFTR locus editing; assay type: cell-based; conditions: HEK 293T
T3 construct: expressed in transfected cells; host or cells: HEK 293T
Procedure: HEK 293T cells were seeded into transparent 96-well plates (Coming). […] Sixteen It post-transfection, cells were irradiated with blue light (7 s ON, 7 s OFF, 3 W/m^2) for 32 h or kept in the dark as control. Subsequently, cells were washed with PBS and lysed using the DirectPCR lysis reagent (PcqLab). A fragment spanning the edited part of the CFTR locus was PCR-amplified using Q5 polymerase and the following primers: CFTR_fw: 5′-[…]-3′, SEQ ID NO: 30; CFTR_re: 5′-[…]-3′, SEQ ID NO: 31). The PCR reaction was run on an agarose gel and the amplicon was purified using a QIAGEN Gel Extraction Kit. Two hundred ng of PCR diluted in 19.5 μl 1× NEB Buffer 2 were then healed up to 95° C. followed by re-annealing in a thermocycler. Next, 0.5 μl of T7 Endonuclease (NEB) were added, and the reaction was incubated at 37° C. for 15 min and then stopped by adding EDTA-containing gel loading dye. Lastly, T7 reactions were analyzed on a 2% agarose gel stained with GelRed (Biotium, Inc.).

HEK 293T cells = assay: Light-induced nuclear export, mCherry fluorescence imaging; assay type: cell-based, human
Procedure: FIG. 5: Induced nuclear export inhibits AcrIIA4 function. (A) Schematic of AcrIIA4 construct fused to mCherry-LEXY. LEXY, light-inducible nuclear export system; fusion polypeptide sequence is SEQ ID NO: 114 (encoded by SEQ ID NO: 74). (B) Fluorescence images of HEK 293T cells transfected with the construct in A. mCherry images were taken prior to induction (Preinduction), after 15 min of irradiation with blue light (Post Activation) and after an additional 20 min recovery phase in the absence of blue light (Post Recovery). (C) Line profile of the indicated cell in B, (D) Bar plot showing control of dCas9-VP64-mediated luciferase reporter activation by NLS-AcrIIA4-mCherry-LEXY. […]
To test whether sequestering AcrIIA4 away from the nucleus could be a possible mode for allosteric Acr control we employed a light-inducible nuclear export system (LEXY) previously reported (Niopek et al., 2016), which mediates the nuclear export of proteins fused to the LEXY domain (an AsLOV2-Nuclear Export Signal-Hybrid) in response to blue light. […] The nuclear mChcrry fluorescence fully recovered within 20 min when blue-light irradiation was stopped, showing that AcrIIA4 nuclear export was reversible (FIGS. 5B and Q.

AcrIIA4: anti-CRISPR polypeptide of a Listeria monocytogenes prophage, SEQ ID NO: 1 [reference compound]
effect on Cas9-caused firefly luciferase knockdown (Cas9 inhibition) (SpyCas9): strongly reduced

cMyc^PIA NLS-mCherry-AcrIIA4
AcrIIA4 activity due to nuclear targeting (dCas9-VP64 inhibition) (dCas9-VP64; 48 h post-transfection): boost in AcrIIA4 activity

construct 1: LOV2 inserted between AcrIIA4 residues E66/Y67, no linkers; SEQ ID NO: 88
Cas9 inhibition in the absence of blue light (SpyCas9; LOV2 insertion screen at 41 positions): highest
Cas9 inhibition in the dark (CFTR locus editing) (Cas9; Cas9:AcrIIA4 construct 1:1, dark): no significant
light-dependent Cas9 inhibition (CFTR locus editing light vs dark) (Cas9; Cas9:AcrIIA4 construct 1:4, blue light 32 h or dark): inhibited Cas9 in a light-dependent manner
Cas9 block in the dark (CFTR editing in dark sample) (Cas9; Cas9:AcrIIA4 construct 1:4, dark): did not fully block Cas9

NLS-AcrIIA4-mCherry-LEXY: NLS-tagged AcrIIA4 fused to mCherry and light-inducible nuclear export system LEXY; SEQ ID NO: 114
dCas9-VP64-mediated luciferase reporter induction upon light-induced nuclear export (dCas9-VP64; blue light vs dark, dose-dependent): noticeable increase
time to full recovery of nuclear mCherry fluorescence after blue-light irradiation was stopped (HEK 293T cells): ≤ 20 min
nuclear mCherry fluorescence upon blue-light irradiation (HEK 293T cells; 15 min blue light): fast and strong decrease

SV40 NLS-AcrIIA4: N-terminal SV40 NLS fusion to AcrIIA4; SEQ ID NO: 115
effect on Cas9-caused firefly luciferase knockdown (Cas9 inhibition) (SpyCas9): full recovery of the luciferase reporter signal
